Legend:
Experiment in all cases: cell_activity
[1] = test system: CCR5 ZFN, L6a linker (FokI) (Artificial Sequence)
[2] = target: CCR5 ZFN SBS 8266, wild-type ZC linker (FokI) (Artificial Sequence) (UniProt P14870)
[3] = test system: CCR5 ZFN, L7a linker (FokI) (Artificial Sequence)
[4] = test system: rat IgM-targeted ZFN pair, one L7a linker (Artificial Sequence); conditions: rat C6 cells
[5] = test system: rat IgM-targeted ZFN pair, ZC linkers (Artificial Sequence); conditions: rat C6 cells
[6] = test system: mROSA-targeted ZFN pair, Wt/L7a linkers (Artificial Sequence); conditions: Neuro2A, mock 0.4
[7] = test system: mROSA-targeted ZFN pair, Wt/Wt linkers (Artificial Sequence); conditions: Neuro2A, mock 0.4
[8] = no cleavage at this spacing, binding not measured

CCR5 ZFN SBS 8266, wild-type ZC linker (FokI) (Artificial Sequence), sequence (P14870 other isoform, or with tags, fused parts or gaps): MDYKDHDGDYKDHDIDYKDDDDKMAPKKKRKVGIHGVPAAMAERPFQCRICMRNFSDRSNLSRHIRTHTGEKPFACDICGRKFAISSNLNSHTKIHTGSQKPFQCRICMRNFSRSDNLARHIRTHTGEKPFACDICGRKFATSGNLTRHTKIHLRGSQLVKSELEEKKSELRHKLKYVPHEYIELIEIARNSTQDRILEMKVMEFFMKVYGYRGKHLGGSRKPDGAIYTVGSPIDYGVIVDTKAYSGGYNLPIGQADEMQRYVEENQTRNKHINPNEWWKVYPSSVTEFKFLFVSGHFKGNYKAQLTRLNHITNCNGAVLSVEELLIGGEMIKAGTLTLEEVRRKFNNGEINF
CCR5 ZFN, L7a linker (FokI) (Artificial Sequence), sequence (chain, as listed by the source): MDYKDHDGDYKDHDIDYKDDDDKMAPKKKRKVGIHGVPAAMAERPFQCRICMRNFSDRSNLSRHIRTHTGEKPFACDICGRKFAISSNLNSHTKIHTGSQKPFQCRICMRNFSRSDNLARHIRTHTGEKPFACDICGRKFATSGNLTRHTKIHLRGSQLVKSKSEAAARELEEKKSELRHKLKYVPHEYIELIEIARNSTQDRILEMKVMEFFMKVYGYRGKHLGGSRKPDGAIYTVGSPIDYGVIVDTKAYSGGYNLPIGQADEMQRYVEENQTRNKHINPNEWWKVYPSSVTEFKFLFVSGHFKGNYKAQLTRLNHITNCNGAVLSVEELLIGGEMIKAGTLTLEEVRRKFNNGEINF
CCR5 ZFN, L6a linker (FokI) (Artificial Sequence), sequence (chain, as listed by the source): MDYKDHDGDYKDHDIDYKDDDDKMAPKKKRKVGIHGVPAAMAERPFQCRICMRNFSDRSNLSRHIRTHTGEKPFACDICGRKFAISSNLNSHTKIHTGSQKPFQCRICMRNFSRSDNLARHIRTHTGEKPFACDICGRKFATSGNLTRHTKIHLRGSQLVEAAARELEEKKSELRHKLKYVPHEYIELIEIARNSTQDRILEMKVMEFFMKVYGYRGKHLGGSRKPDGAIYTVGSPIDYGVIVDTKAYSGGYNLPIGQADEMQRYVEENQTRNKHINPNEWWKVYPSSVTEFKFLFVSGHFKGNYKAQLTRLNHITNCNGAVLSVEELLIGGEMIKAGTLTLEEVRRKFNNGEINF

CCR5 ZFN sites, 8 bp gap
activity [1, 8]: 0 % NHEJ | activity [2, 8]: 0 % NHEJ | activity ([3]; ZFN pair, average of 2): 6.1 % NHEJ

CCR5 ZFN sites, 4 bp gap
activity [1, 8]: 0 % NHEJ | activity ([2]; ZFN pair, average of 2): 1.2 % NHEJ | activity [3, 8]: 0 % NHEJ

rat IgM target, 6 bp gap
activity [4]: 2.43 % NHEJ | activity [5]: 1.93 % NHEJ

CCR5 ZFN sites, 6 bp gap
activity ([1]; ZFN pair, average of 2): 25.4 % NHEJ | activity ([2]; ZFN pair, average of 2): 11.1 % NHEJ | activity ([3]; ZFN pair, average of 2): 31.8 % NHEJ

CCR5 ZFN sites, 5 bp gap
activity ([1]; ZFN pair, average of 2): 39.3 % NHEJ | activity ([2]; ZFN pair, average of 2): 35 % NHEJ | activity [3, 8]: 0 % NHEJ

CCR5 ZFN sites, 7 bp gap
activity ([1]; ZFN pair, average of 2): 5.1 % NHEJ | activity [2, 8]: 0 % NHEJ | activity ([3]; ZFN pair, average of 2): 39.6 % NHEJ

mROSA target, 6 bp gap
activity [6]: 7.5 % NHEJ | activity [7]: 22.6 % NHEJ

From patent US20160312197
